Where a chain is given by its changes, count along the chain named. Names may count otherwise.
Key:
[1] = target: T1, Recombinant Human CTLA-4-Fc Chimera (BioLegend) (human, UniProt P16410 36-161, limits assumed); assay: SPR (Biacore), Fc-fused hCTLA-4 captured by anti-human IgG (Fc), scFv as analyte, single cycle kinetics
T1 construct: Bought reagent; also called hCTLA-4; hCTLA-4 immobilized; not shown: human IgG1 Fc
T1 sequence (looked up): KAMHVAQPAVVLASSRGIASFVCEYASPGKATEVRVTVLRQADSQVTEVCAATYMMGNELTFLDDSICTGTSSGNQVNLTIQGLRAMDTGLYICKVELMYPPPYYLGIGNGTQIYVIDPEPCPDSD
Procedure: The binding kinetic parameter of each hCTLA-4scFv01-FLAG purified to hCTLA-4 (fusion protein with human IgG1Fc) was measured by surface plasmon resonance using Biacore system (manufactured by GE Healthcare). To a substrate having a carboxyl methyl dextran-coated gold membrane, a mouse anti-human IgG (Fc) monoclonal antibody (manufactured by GE Healthcare) was bound in accordance with amine coupling, and Fc-fused recombinant hCTLA-4 (Biolegend) was captured as a ligand. As an analyte, scFv purified was used. Samples of scFv having a concentration of 0.7404, 2.2222, 6.6667, 20 and 60 nM were prepared and sequentially subjected to binding in order of increasing concentration in accordance with single cycle kinetics. Data obtained were analyzed by BIA evaluation software (manufactured by GE Healthcare).
The binding kinetic parameter to hCTLA-4 (fusion protein with human IgG1Fc) was measured by surface plasmon resonance using Biacore system. Thereafter, analysis was carried out in the same manner as in Example 29.

[2] = target: T2, human PD-1 overexpressed on HEK293T cells (human, UniProt Q15116 25-288); assay: flow cytometry on HEK293T cells overexpressing hPD-1; anti-hCTLA-4scFv01-FLAG purified from PC4, used as in Example 24 (biotinylated Protein L and Brilliant Violet 421 Streptavidin) [d]
T2 construct: whole, on cells; also called hPD-1 expressing cells; human PD-1 overexpressing cell
T2 sequence (Q15116 25-288): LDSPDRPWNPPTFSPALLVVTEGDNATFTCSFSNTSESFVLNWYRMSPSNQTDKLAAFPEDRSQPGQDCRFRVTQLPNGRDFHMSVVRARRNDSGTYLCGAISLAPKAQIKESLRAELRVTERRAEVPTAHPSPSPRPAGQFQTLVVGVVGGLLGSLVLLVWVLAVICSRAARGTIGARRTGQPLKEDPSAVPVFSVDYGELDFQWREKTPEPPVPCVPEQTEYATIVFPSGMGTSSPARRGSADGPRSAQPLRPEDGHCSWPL

[3] = target: T3, mPD-1 (Fc Chimera, R&D Systems) (mouse, UniProt Q02242 25-167); assay: ELISA, antigen-Fc immobilized, scFv at 100 ng/mL
T3 construct: Species read from the label mPD-1 only; also called mPD-1 immobilized; Fc part of the bought chimera not given
T3 sequence (looked up): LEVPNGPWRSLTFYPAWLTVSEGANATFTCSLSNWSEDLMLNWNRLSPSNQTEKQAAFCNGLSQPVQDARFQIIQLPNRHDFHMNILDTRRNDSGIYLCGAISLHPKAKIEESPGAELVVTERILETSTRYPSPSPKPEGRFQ
Procedure: (§1) After the liquid was removed, 1×PBS (350 μL) for each was dispensed and the liquid was removed. This operation was repeated three times for washing. To each of the plates, 1% BSA solution (350 μL) was dispensed at room temperature and incubated for 2 hours for blocking. After the liquid was removed, 1×PBS (350 μL) for each was dispensed and the liquid was removed. This operation was repeated three times for washing.
(§2) To blank wells, the signal enhancing reagent alone was dispensed in an amount of 100 μL. […] After the liquid was removed, 1×PBS (350 μL for each) was dispensed and the liquid was removed. This operation was repeated three times for washing.
(§3) The plates were shielded from light and incubated at room temperature for 20 minutes. […] Absorbance was measured at 450 nm and 570 nm (reference wavelength).

[4] = target: T1, Recombinant Human CTLA-4-Fc Chimera …; assay: ELISA, antigen-Fc immobilized, scFv at 100 ng/mL
Procedure: as §1, §2, §3

[5] = target: T3, mPD-1 (Fc Chimera, R&D Systems); assay: ELISA, antigen-Fc immobilized, scFv at 1000 ng/mL
Procedure: as §1, §2, §3

[6] = target: T1, Recombinant Human CTLA-4-Fc Chimera …; assay: ELISA, antigen-Fc immobilized, scFv at 1000 ng/mL
Procedure: as §1, §2, §3

[7] = target: T3, mPD-1 (Fc Chimera, R&D Systems); assay: ELISA, antigen-Fc immobilized, scFv at 1 ng/mL
Procedure: as §1, §2, §3

[8] = target: T1, Recombinant Human CTLA-4-Fc Chimera …; assay: ELISA, antigen-Fc immobilized, scFv at 1 ng/mL
Procedure: as §1, §2, §3

[9] = target: T3, mPD-1 (Fc Chimera, R&D Systems); assay: ELISA, antigen-Fc immobilized, scFv at 10 ng/mL
Procedure: as §1, §2, §3

[10] = target: T1, Recombinant Human CTLA-4-Fc Chimera …; assay: ELISA, antigen-Fc immobilized, scFv at 10 ng/mL
Procedure: as §1, §2, §3

B1: anti-hCTLA-4scFv01 (not tagged) of single-expression strain C2TLB (scFv)
scFv: AQVQLVESGGGVVQPGRSLRLSCAASGFTFSSYGMHWVRQAPGKGLEWVAVIWYDGSNKYYADSVKGRFTISRDNSKNTLYLQMNSLRAEDTAVYYCARDPRGATLYYYYYGMDVWGQGTTVTVSSGGGGSGGGGSGGGGSDIQMTQSPSSLSASVGDRVTITCRASQSINSYLDWYQQKPGKAPKLLIYAASSLQSGVPSRFSGSGSGTDFTLTISSLQPEDFATYYCQQYYSTPFTFGPGTKVEIK
notes: Plasmid pC2TLB; PC2TL and PC7TL secrete the same scFv; Signal peptide SP67 left out; also called scFv derived from C2TLB strain; anti-hCTLA-4scFv01 in culture supernatants of PC2TL and PC7TL
Question: How did the Kd [1] turn out when B1 was run?
Answer: The Kd was 0.98 nM.

Question: And the koff [1]?
Answer: The koff was 0.000961 s⁻¹.

Question: And the kon [1]?
Answer: Its kon is 981000 M⁻¹ s⁻¹.

B2: anti-hCTLA-4scFv01 (not tagged) of single-expression strain C3TLB (scFv)
scFv: B1 scFv with A1D
notes: Plasmid pC3TLB; PC3TL, PC5TL and PC8TL secrete the same scFv; Signal peptide SP68 left out; also called scFv derived from C3TLB strain; anti-hCTLA-4scFv01 in culture supernatants of PC3TL, PC5TL and PC8TL
Question: Which Kd [1] does the source give for B2 here?
Answer: The Kd was 1.29 nM.

Question: What about the koff [1] of the same binder?
Answer: The koff was 0.000996 s⁻¹.

Question: What about the kon [1] of the same binder?
Answer: The kon was 773000 M⁻¹ s⁻¹.

B3: anti-hCTLA-4scFv01-FLAG purified from single-expression strain C1F or from co-expression strain PC4 (scFv)
scFv: ATLTPQVQLVESGGGVVQPGRSLRLSCAASGFTFSSYGMHWVRQAPGKGLEWVAVIWYDGSNKYYADSVKGRFTISRDNSKNTLYLQMNSLRAEDTAVYYCARDPRGATLYYYYYGMDVWGQGTTVTVSSGGGGSGGGGSGGGGSDIQMTQSPSSLSASVGDRVTITCRASQSINSYLDWYQQKPGKAPKLLIYAASSLQSGVPSRFSGSGSGTDFTLTISSLQPEDFATYYCQQYYSTPFTFGPGTKVEIKDYKDDDDK
notes: Plasmid pP30SP50L5-hCTLA-4scFv01-FLAG (pC1F) and pPC4; PC4 and PC6 secrete the same scFv as C1F; Signal peptide SP50 left out; also called scFv derived from C1F strain; hCTLA-4scFv01-FLAG purified from PC4 strain
Question: Does B3 bind [2]?
Answer: Result: no binding (tested: 1 ug/mL)

Question: And the Kd [1]?
Answer: Its Kd is 1.08 nM.

Question: And the koff [1]?
Answer: Its koff is 0.000996 s⁻¹.

Question: And the kon [1]?
Answer: Its kon is 918000 M⁻¹ s⁻¹.

B4: anti-hCTLA-4scFv01-FLAG purified from single-expression strain C2F (scFv)
scFv: AQVQLVESGGGVVQPGRSLRLSCAASGFTFSSYGMHWVRQAPGKGLEWVAVIWYDGSNKYYADSVKGRFTISRDNSKNTLYLQMNSLRAEDTAVYYCARDPRGATLYYYYYGMDVWGQGTTVTVSSGGGGSGGGGSGGGGSDIQMTQSPSSLSASVGDRVTITCRASQSINSYLDWYQQKPGKAPKLLIYAASSLQSGVPSRFSGSGSGTDFTLTISSLQPEDFATYYCQQYYSTPFTFGPGTKVEIKDYKDDDDK
notes: Plasmid pP30SP67L1-hCTLA-4scFv01-FLAG (pC2F); PC2 and PC7 secrete the same scFv; Signal peptide SP67 left out; also called scFv derived from C2F strain
Question: How did the Kd [1] turn out when B4 was run?
Answer: Its Kd is 2.28 nM.

Question: And the koff [1]?
Answer: The koff was 0.00103 s⁻¹.

Question: And the kon [1]?
Answer: Its kon is 452000 M⁻¹ s⁻¹.

B5: anti-hCTLA-4scFv01-FLAG purified from single-expression strain C3F (scFv)
scFv: B4 scFv with A1D
notes: Plasmid pP30SP68L1-hCTLA-4scFv01-FLAG (pC3F); PC3, PC5 and PC8 secrete the same scFv; also called scFv derived from C3F strain
Question: B5 was tested. Which Kd [1] did it give?
Answer: Its Kd is 2.97 nM.

Question: What about the koff [1] of the same binder?
Answer: Its koff is 0.00103 s⁻¹.

Question: What about the kon [1] of the same binder?
Answer: Its kon is 347000 M⁻¹ s⁻¹.

B6: anti-hCTLA-4scFv01 (not tagged) of single-expression strain C1TLB (scFv)
scFv: ATLTPQVQLVESGGGVVQPGRSLRLSCAASGFTFSSYGMHWVRQAPGKGLEWVAVIWYDGSNKYYADSVKGRFTISRDNSKNTLYLQMNSLRAEDTAVYYCARDPRGATLYYYYYGMDVWGQGTTVTVSSGGGGSGGGGSGGGGSDIQMTQSPSSLSASVGDRVTITCRASQSINSYLDWYQQKPGKAPKLLIYAASSLQSGVPSRFSGSGSGTDFTLTISSLQPEDFATYYCQQYYSTPFTFGPGTKVEIK
notes: Plasmid pC1TLB; PC4TL and PC6TL secrete the same scFv; Signal peptide SP50 left out; also called scFv derived from C1TLB strain; anti-hCTLA-4scFv01 in culture supernatants of PC4TL and PC6TL
Question: How did the Kd [1] turn out when B6 was run?
Answer: Its Kd is 1.48 nM.

Question: What about the koff [1] of the same binder?
Answer: Its koff is 0.00098 s⁻¹.

Question: What about the kon [1] of the same binder?
Answer: Its kon is 661000 M⁻¹ s⁻¹.

B7: anti-hPD-1scFv03 purified from the culture supernatant of co-expression strain PC1 (scFv)
scFv: DSAQTSAVVSSRSFPKASSVQVQLVESGGGVVQPGRSLRLDCKASGITFSNSGMHWVRQAPGKGLEWVAVIWYDGSKRYYADSVKGRFTISRDNSKNTLFLQMNSLRAEDTAVYYCATNDDYWGQGTLVTVSSGGGGSGGGGSGGGGSEIVLTQSPATLSLSPGERATLSCRASQSVSSYLAWYQQKPGQAPRLLIYDASNRATGIPARFSGSGSGTDFTLTISSLEPEDFAVYYCQQSSNWPRTFGQGTKVEIKHHHHHH
notes: Secreted from the cassette SP7L20-anti-hPD-1scFv03-His tag; also called anti-PD-1scFv03
Question: How did the OD value [3] turn out when B7 was run?
Answer: The OD value was -0.049 OD.

Question: And the OD value [4]?
Answer: The OD value was -0.018 OD.

Question: What about the OD value [5] of the same binder?
Answer: Its OD value is 0.107 OD.

Question: What about the OD value [6] of the same binder?
Answer: The OD value was 0.341 OD.

Question: What about the OD value [7] of the same binder?
Answer: Its OD value is -0.059 OD.

Question: What about the OD value [8] of the same binder?
Answer: Its OD value is -0.062 OD.

Question: And the OD value [9]?
Answer: Its OD value is -0.057 OD.

Question: And the OD value [10]?
Answer: Its OD value is -0.055 OD.

— patent US20170260534A1 (ANAEROPHARMA SCIENCE, published 2017)
